Key:
GDF11 [1] = biological target: T1, GDF11 (Homo sapiens, UniProt O95390); test: A204 cell-based pGL3(CAGA)12 reporter gene assay, signaling by GDF11; settings: for Inhibitory Potency of Homodimeric ActRIIB-Fc Constructs IC50 GDF11: Table 5, A204 cells, luciferase reporter, ND: not detectable over concentration range tested
T1 sequence (O95390 299-407): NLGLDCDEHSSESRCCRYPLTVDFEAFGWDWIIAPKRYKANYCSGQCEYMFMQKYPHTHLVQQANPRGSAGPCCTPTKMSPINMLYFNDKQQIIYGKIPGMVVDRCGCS
From the text: (§1) To determine activity of variant ActRIIB-Fc polypeptides, an A204 cell-based assay was used to compare effects among variant ActRIIB-Fc polypeptides on signaling by activin A, activin B, GDF8, GDF11, BMP9, and BMP10, in comparison to ActRIIB-G1Fc. In brief, this assay uses a human A204 rhabdomyosarcoma cell line (ATCC®: HTB-82™) derived from muscle and the reporter vector pGL3(CAGA)12 (Dennler et al., 1998, EMBO 17: 3091-3100) as well as a Renilla reporter plasmid (pRLCMV) to control for transfection efficiency. The CAGA12 motif is present in TGF-β responsive genes (e.g., PAI-1 gene), so this vector is of general use for ligands that can signal through Smad2/3, including activin A. GDF11, and BMP9.
(§2) On day 1. A204 cells were transferred into one or more 48-well plates. On day 2, these cells were transfected with 10 μg pGL3(CAGA)12 or pGL3(CAGA)12(10 μg)+pRLCMV (1 pg) and Fugene. On day 3, ligands diluted in medium containing 0.1% BSA were preincubated with ActRIIB-Fc polypeptides for 1 hr before addition to cells. Approximately six hour later, the cells were rinsed with PBS and lysed. Cell lysates were analyzed in a luciferase assay to determine the extent of Smad activation.
(§3) This assay was used to screen variant ActRIIB-Fc polypeptides for inhibitory effects on cell signaling by activin A, activin B. GDF8, GDF11. BMP9, and BMP10. Potencies of homodimeric Fc fusion polypeptides incorporating amino acid substitutions in the human ActRIIB extracellular domain were compared with that of an Fc fusion polypeptide comprising unmodified human ActRIIB extracellular domain, ActRIIB-G1Fc. For some variants tested, it was not possible to calculate an accurate IC50, but signs of inhibition in the slope of the curves were detectable. For these variants, an estimate was included of the order of magnitude of the relative IC50, i.e. >10 nM or >100 nM instead of a definite number. Such data points are indicated by a (*) in Table 3 below. For some variants tested, there was no detectable inhibition in the slope of the curves over the concentration range tested, which is indicated by “ND” in Table 4.
as §1, with “A,” for “A, activin B, GDF8,”, “GDF11,” for “GDF11, BMP9,”, “and BMP9.” for “and BMP10, in comparison to ActRIIB-G1Fc.”, “(Dennler el” for “(Dennler et”, “activin A,” for “activin A.”
as §2, with “1, A-204” for “1. A204”, “μg)” for “pg)”
(§4) This assay was used to screen variant ActRIIB-Fc polypeptides for inhibitory effects on cell signaling by activin A, GDF11, and BMP9. Potencies of homodimeric Fc fusion polypeptides incorporating amino acid substitutions in the human ActRIIB extracellular domain were compared with that of an Fc fusion polypeptide comprising unmodified human ActRIIB extracellular domain.

Activin A = biological target: T2, Activin A (Homo sapiens, UniProt P08476); test: A204 cell-based pGL3(CAGA)12 reporter gene assay, signaling by activin A; settings: for Inhibitory Potency of Homodimeric ActRIIB-Fc Constructs IC50 Activin A: Table 5, A204 cells, luciferase reporter
T2 sequence (P08476 311-426): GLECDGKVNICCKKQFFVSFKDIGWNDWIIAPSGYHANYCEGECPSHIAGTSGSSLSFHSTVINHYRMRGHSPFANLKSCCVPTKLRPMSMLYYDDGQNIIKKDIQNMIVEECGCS
From the text: as §1, §2, §3
as §1, with “A,” for “A, activin B, GDF8,”, “GDF11,” for “GDF11, BMP9,”, “and BMP9.” for “and BMP10, in comparison to ActRIIB-G1Fc.”, “(Dennler el” for “(Dennler et”, “activin A,” for “activin A.”
as §2, with “1, A-204” for “1. A204”, “μg)” for “pg)”
as §4

BMP9 [2] = biological target: T3, BMP9 (Homo sapiens, UniProt Q9UK05); test: A204 cell-based pGL3(CAGA)12 reporter gene assay, signaling by BMP9; settings: for Inhibitory Potency of Homodimeric ActRIIB-Fc Constructs IC50 BMP9: Table 5, A204 cells, luciferase reporter, ND: not detectable over concentration range tested
T3 sequence (Q9UK05 320-429): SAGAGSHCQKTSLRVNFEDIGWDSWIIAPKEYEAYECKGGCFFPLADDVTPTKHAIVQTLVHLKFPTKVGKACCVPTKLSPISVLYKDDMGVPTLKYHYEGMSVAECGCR
From the text: as §1, §2, §3
as §1, with “A,” for “A, activin B, GDF8,”, “GDF11,” for “GDF11, BMP9,”, “and BMP9.” for “and BMP10, in comparison to ActRIIB-G1Fc.”, “(Dennler el” for “(Dennler et”, “activin A,” for “activin A.”
as §2, with “1, A-204” for “1. A204”, “μg)” for “pg)”
as §4

BMP9 [3] = biological target: T3, BMP9; test: Biacore-based binding assay (surface plasmon resonance), BMP9; settings: SPR 37° C., FIG. 9, compared to Fc fusion with unmodified ActRIIB extracellular domain
Experimental: (§5) To determine ligand binding profiles of variant ActRIIB-Fc homodimers, a Biacore™-based binding assay was used to compare ligand binding kinetics of certain variant ActRIIB-Fc polypeptides. ActRIIB-Fc polypeptides to be tested were independently captured onto the system using an anti-Fc antibody. Ligands were then injected and allowed to flow over the captured receptor protein. ActRIIB-G1Fc was used as the control polypeptide.
as §5, with “protein.” for “protein. ActRIIB-G1Fc was used as the control polypeptide.”
A Biacore™-based binding assay was used to compare the ligand binding kinetics of an ActRIIB-Fc:ActRIIB(L79E)-Fc heterodimer with those of unmodified ActRIIB-Fc homodimer. Fusion proteins were captured onto the system using an anti-Fc antibody. Ligands were then injected and allowed to flow over the captured receptor protein at 37° C. Results are summarized in the table below, in which ligand off-rates (kd) most indicative of effective ligand traps are denoted in bold.

GDF11 [4] = biological target: T4, GDF11 (UniProt O95390 299-407); test: cell-based or functional assay
T4 construct: also called Growth and differentiation factor-11; BMP11
T4 sequence (looked up): T1 sequence (O95390 299-407)

Row | Substance | Inhibitory Potency of Homodimeric ActRIIB-Fc Constructs IC50 GDF11 (GDF11 [1]) | Inhibitory Potency of Homodimeric ActRIIB-Fc Constructs IC50 Activin A (Activin A) | Inhibitory Potency of Homodimeric ActRIIB-Fc Constructs IC50 BMP9 (BMP9 [2]) | further results
1 | A24N: homodimeric ActRIIB-Fc fusion, A24N substitution in human ActRIIB extracellular domain | 0.099 µg/mL | 0.128 µg/mL | 0.409 µg/mL | 
2 | F82K: homodimeric ActRIIB-G1Fc fusion with F82K substitution; mature SEQ ID NO: 42 |  |  |  | inhibition of GDF11 compared to fusion polypeptide with unmodified ActRIIB extracellular domain (in words) (GDF11 [1]; A204 reporter gene assay): essentially undiminished inhibition of activin A and GDF11; inhibition of activin A compared to fusion polypeptide with unmodified ActRIIB extracellular domain (in words) (Activin A; A204 reporter gene assay): essentially undiminished inhibition of activin A and GDF11; inhibition of BMP9 compared to fusion polypeptide with unmodified ActRIIB extracellular domain (in words) (BMP9 [2]; A204 reporter gene assay): less potent inhibition of BMP9; selectivity of antagonism (activin A and GDF11 over BMP9) compared to unmodified ActRIIB-Fc (BMP9 [2]; A204 reporter gene assay): more selective antagonists of activin A and GDF11; reduction in affinity for BMP9 compared with reduction in affinity for GDF11 or activin A (BMP9 [3]): reduce ActRIIB binding affinity for BMP9 more than they reduce ActRIIB affinity for activin A or GDF11; reduction in affinity for BMP9 compared with reduction in affinity for GDF11 or activin A (BMP9 [3]; listed as ActRIIB(F82K)-Fc): greater reduction in their affinity for BMP9 than for GDF11
3 | R40A: homodimeric ActRIIB-Fc fusion, R40A substitution in human ActRIIB extracellular domain | 0.591 µg/mL |  | 1.21 µg/mL | 
4 | E50K: homodimeric ActRIIB-Fc fusion, E50K substitution in human ActRIIB extracellular domain | 0.18 µg/mL | 0.132 µg/mL | 0.721 µg/mL | 
5 | K55R: homodimeric ActRIIB-Fc fusion, K55R substitution in human ActRIIB extracellular domain | 0.318 µg/mL | 0.206 µg/mL | 0.777 µg/mL | 
6 | E52K: homodimeric ActRIIB-Fc fusion, E52K substitution in human ActRIIB extracellular domain | 0.296 µg/mL | 0.762 µg/mL | ~10 µg/mL | 
7 | Y60P: homodimeric ActRIIB-Fc fusion, Y60P substitution in human ActRIIB extracellular domain | 0.544 µg/mL |  |  | 
8 | F82W/N83A: homodimeric ActRIIB-Fc fusion, F82W and N83A substitutions in human ActRIIB extracellular domain | 0.389 µg/mL |  | ~40 µg/mL | 
9 | L79R: homodimeric ActRIIB-Fc fusion, L79R substitution in human ActRIIB extracellular domain | 0.234 µg/mL |  |  | 
10 | L79R (homodimeric ActRIIB-Fc construct) (Fc fusion) |  |  |  | IC50 (ng/ml), A204 CAGA12 luciferase reporter assay (GDF11 [4]): 234 ng/mL
11 | F82W (homodimeric ActRIIB-Fc construct) (Fc fusion) |  |  |  | IC50 (ng/ml), A204 CAGA12 luciferase reporter assay (GDF11 [4]): 276 ng/mL
12 | E52A: homodimeric ActRIIB-Fc fusion, E52A substitution in human ActRIIB extracellular domain | 0.071 µg/mL | 0.198 µg/mL | 0.359 µg/mL | 
13 | Y60K: homodimeric ActRIIB-Fc fusion, Y60K substitution in human ActRIIB extracellular domain | 0.414 µg/mL |  |  | 
14 | K55D: homodimeric ActRIIB-Fc fusion, K55D substitution in human ActRIIB extracellular domain | 0.365 µg/mL | 0.396 µg/mL | 5.5 µg/mL | 
15 | K74R: homodimeric ActRIIB-Fc fusion, K74R substitution in human ActRIIB extracellular domain | 0.045 µg/mL |  | 0.165 µg/mL | 
16 | Y60P (homodimeric ActRIIB-Fc construct) (Fc fusion) |  |  |  | IC50 (ng/ml), A204 CAGA12 luciferase reporter assay (GDF11 [4]): 544 ng/mL
17 | E50P: homodimeric ActRIIB-Fc fusion, E50P substitution in human ActRIIB extracellular domain | 0.638 µg/mL | 0.756 µg/mL | ~3 µg/mL | 
18 | Y60K (homodimeric ActRIIB-Fc construct) (Fc fusion) |  |  |  | IC50 (ng/ml), A204 CAGA12 luciferase reporter assay (GDF11 [4]): 414 ng/mL
19 | F82W: homodimeric ActRIIB-Fc fusion, F82W substitution in human ActRIIB extracellular domain | 0.276 µg/mL |  |  | 

Reference: US20240181007A1, “COMPOSITIONS AND METHODS FOR TREATING PULMONARY HYPERTENSION” (Acceleron Pharma Inc., priority 2021, published 2024)
